In patent publication US20250076311A1 (Chugai, published 2025):
Each block holds one binder with its values, some of them ahead of it.

Key:
[1] = target: T1, cynomolgus monkey FcγRIIa1 extracellular domain with C-terminal His-tag (cynomolgus monkey); experiment: SPR, KD(SG1)/KD(variant)
T1 construct: also called cyno FcgRIIa1; cynoFcγRIIa1
T1 chain: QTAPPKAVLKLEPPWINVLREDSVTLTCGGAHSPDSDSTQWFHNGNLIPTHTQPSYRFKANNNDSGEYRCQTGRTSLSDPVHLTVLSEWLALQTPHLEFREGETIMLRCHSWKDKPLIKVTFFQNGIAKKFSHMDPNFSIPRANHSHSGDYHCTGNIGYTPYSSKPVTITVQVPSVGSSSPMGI
Method: (§1) The kinetic analysis of interactions between these antibodies and FcγR was carried out using BIACORE® T200 or BIACORE® 4000 (GE Healthcare). HBS-EP+ (GE Healthcare) was used as the running buffer, and the measurement temperature was set to 25° C. […] After the measurement, the antibody captured on the chip was washed off by allowing reaction with 10 mM glycine-HCl, pH1.5 and 25 mM NaOH so that the chip was regenerated and used repeatedly. The sensorgrams obtained as measurement results were analyzed by the 1:1 Langmuir binding model using the BIACORE® Evaluation Software to calculate the binding rate constant ka (L/mol/s) and dissociation rate constant kd (1/s), and the dissociation constant KD (mol/L) was calculated from these values. […] Regarding such interactions, KD values were calculated using the following 1:1 binding model described in BIACORE® T100 Software Handbook BR1006-48 Edition AE.

[2] = target: T2, cynomolgus monkey FcγRIIa2 extracellular domain with C-terminal His-tag (cynomolgus monkey); experiment: SPR, KD(SG1)/KD(variant)
T2 construct: also called cyno FcgRIIa2; cynoFcγRIIa2
T2 chain: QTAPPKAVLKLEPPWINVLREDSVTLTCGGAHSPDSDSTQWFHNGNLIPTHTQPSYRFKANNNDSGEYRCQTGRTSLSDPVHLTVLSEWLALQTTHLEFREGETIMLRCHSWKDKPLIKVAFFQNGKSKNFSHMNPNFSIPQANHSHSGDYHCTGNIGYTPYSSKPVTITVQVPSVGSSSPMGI
Method: as §1

[3] = target: T3, cynomolgus monkey FcγRIIIaS extracellular domain with C-terminal His-tag (cynomolgus monkey, UniProt Q8SPW2 21-206 at identity 1.00)); experiment: SPR, KD(SG1)/KD(variant)
T3 construct: also called cyno FcgRIIIaS; cynoFcγRIIIaS
T3 chain: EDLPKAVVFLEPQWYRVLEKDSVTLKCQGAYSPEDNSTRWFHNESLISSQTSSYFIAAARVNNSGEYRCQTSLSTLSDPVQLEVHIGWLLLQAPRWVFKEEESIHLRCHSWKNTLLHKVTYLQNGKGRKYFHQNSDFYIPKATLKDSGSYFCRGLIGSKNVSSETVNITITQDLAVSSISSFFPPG
Method: as §1

[4] = target: T4, human FcγRIIIaV extracellular domain with C-terminal His-tag (human, UniProt P08637 17-208); experiment: SPR, KD(SG1)/KD(variant)
T4 construct: also called human FcgRIIIaV
T4 sequence (P08637 17-208 F176V): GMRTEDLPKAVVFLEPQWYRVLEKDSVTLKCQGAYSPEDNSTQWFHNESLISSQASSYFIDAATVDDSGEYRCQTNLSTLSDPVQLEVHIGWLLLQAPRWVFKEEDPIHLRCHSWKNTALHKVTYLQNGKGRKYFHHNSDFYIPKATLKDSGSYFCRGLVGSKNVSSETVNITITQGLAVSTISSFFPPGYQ
Method: as §1

[5] = target: T3, cynomolgus monkey FcγRIIIaS …; experiment: SPR, antibody captured, FcγR analyte
[6] = target: T5, human FcγRIIaR extracellular domain with C-terminal His-tag (human, UniProt P12318 34-217); experiment: SPR, antibody captured, FcγR analyte
T5 construct: also called human FcgRIIaR; FcγRIIa (type R)
T5 chain: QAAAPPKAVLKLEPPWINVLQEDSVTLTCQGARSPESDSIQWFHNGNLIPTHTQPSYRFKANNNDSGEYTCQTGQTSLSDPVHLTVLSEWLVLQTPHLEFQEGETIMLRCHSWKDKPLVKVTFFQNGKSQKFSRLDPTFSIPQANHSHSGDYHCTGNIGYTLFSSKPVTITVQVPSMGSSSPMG

[7] = target: T6, human FcγRIIaH extracellular domain, C-terminal His-tag (human, UniProt P12318 34-217); experiment: SPR, anti-kappa capture; KD(SG1)/KD(variant)
T6 construct: also called FcgRIIaH; human FcγRIIa (type H)
T6 sequence: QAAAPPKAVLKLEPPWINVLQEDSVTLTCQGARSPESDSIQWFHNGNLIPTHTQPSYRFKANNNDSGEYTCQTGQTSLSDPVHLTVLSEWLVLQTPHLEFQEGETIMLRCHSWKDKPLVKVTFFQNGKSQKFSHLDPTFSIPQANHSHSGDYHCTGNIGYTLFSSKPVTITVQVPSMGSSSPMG

[8] = target: T7, cynomolgus monkey FcγRIIa3 extracellular domain, His-tagged (cynomolgus monkey); experiment: SPR Biacore, KD(SG1)/KD(variant)
T7 construct: also called cyno FcγRIIa3; cynoFcgRIIa3; not shown: C-terminal His-tag
T7 chain: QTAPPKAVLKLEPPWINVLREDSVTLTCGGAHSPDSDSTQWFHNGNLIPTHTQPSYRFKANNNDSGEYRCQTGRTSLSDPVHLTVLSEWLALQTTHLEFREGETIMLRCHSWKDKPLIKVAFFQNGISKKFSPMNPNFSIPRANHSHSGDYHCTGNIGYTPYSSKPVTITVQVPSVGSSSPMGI

[9] = target: T8, cynomolgus monkey FcγRIIa2 extracellular domain, His-tagged (cynomolgus monkey); experiment: SPR Biacore, antibody captured, FcgR analyte
T8 construct: also called cyno FcγRIIa2; cynoFcgRIIa2; not shown: C-terminal His-tag
T8 chain: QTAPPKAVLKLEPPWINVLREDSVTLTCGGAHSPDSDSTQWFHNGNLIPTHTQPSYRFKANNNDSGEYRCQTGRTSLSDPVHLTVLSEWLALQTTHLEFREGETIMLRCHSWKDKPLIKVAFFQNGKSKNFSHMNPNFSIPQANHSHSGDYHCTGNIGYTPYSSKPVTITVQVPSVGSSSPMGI

[10] = target: T9, human FcγRIIIaV extracellular domain, His-tagged (human, UniProt P08637 17-208); experiment: SPR Biacore, antibody captured, FcgR analyte
T9 construct: also called FcgRIIIaV; not shown: C-terminal His-tag
T9 sequence (P08637 17-208 F176V): as the sequence (P08637 17-208 F176V) above

[11] = target: T10, cynomolgus monkey FcγRIIb extracellular domain, His-tagged (cynomolgus monkey); experiment: SPR Biacore, antibody captured, FcgR analyte
T10 construct: also called cyno FcγRIIb; cynoFcγRIIb; not shown: C-terminal His-tag
T10 chain: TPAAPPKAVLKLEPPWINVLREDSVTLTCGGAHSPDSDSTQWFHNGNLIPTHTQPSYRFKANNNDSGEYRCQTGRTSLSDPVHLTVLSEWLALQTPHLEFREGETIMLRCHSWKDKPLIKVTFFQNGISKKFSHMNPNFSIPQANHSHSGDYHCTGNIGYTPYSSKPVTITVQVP

KD fold (SG1 = 1) [1]: 2.3 fold
KD fold (SG1 = 1) [2]: 2 fold
KD fold (SG1 = 1) [3]: 0.06 fold
KD fold (SG1 = 1) [4]: 0.07 fold
Kd [5]: 4.3 µM
Kd [6]: 22 µM
B1: MS1032LO06-PK57 (antibody, human IgG1, kappa)
heavy: QVTLKESGPVLVKPTETLTLTCTVSGIDLSHDDISWVRQAPGKGLEWVGIISYAGSTYYASWAKGRLTISKDTSKNQVVLTMTNMDPVDTATYYCARGVPAYSHGGDLWGQGTLVTVSSASTKGPSVFPLAPSSKSTSGGTAALGCLVKDYFPEPVTVSWNSGALTSGVHTFPAVLQSSGLYSLSSVVTVPSSSLGTQTYICNVNHKPSNTKVDKKVEPKSCDKTHTCPPCPAPELLNGPSVFLFPPKPKDTLMISRTPEVTCVVVDVSDEDPEVKFNWYVDGVEVHNAKTKPREEQYNSTYRVVSVLTVLHRDWLNGKEYKCKVSNKALPKPIEKTISKAKGQPREPQVYTLPPSREEMTKNQVSLTCLVKGFYPSDIAVEWESRGQPENNYKTTPPVLDSDGSFFLYSKLTVRKSRWQQGNVFSCSVMHEALHNHYTQKSLSLSP
light: DIVMTQSPATLSLSPGERATLSCTSSQSVYHANWLSWFQQKPGQPPKLLIYWASTLAYGVPSRFSGSGSGTDFTLTISSLQPEDAATYYCAGGYGGGRYAFGQGTKVEIKRTVAAPSVFIFPPSDEQLKSGTASVVCLLNNFYPREAKVQWKVDNALQSGNSQESVTEQDSKDSTYSLSSTLTLSKADYEKHKVYACEVTHQGLSSPVTKSFNRGEC
notes: MY201 with Q311R/N384R/D413R; also called MS103205H795-PK57; M103205H795-MY57; copies: 2 + 2

KD fold (SG1 = 1) [7]: 0.02 fold
B2: MS103240H795-TT91/M103202L1045-SK1 (antibody)
heavy: QVQLVESGGGLVQPGGSLRLSCAVSGIDLSHDDISWVRQAPGKGLEWVSIISYAGSTYYASWAKGRLTISKDTSKNQVVLTMTNMDPVDTATYYCARGVPAYSHGGDLWGQGTLVTVSSASTKGPSVFPLAPSSKSTSGGTAALGCLVKDYFPEPVTVSWNSGALTSGVHTFPAVLQSSGLYSLSSVVTVPSSSLGTQTYICNVNHKPSNTKVDKKVEPKSCDKTHTCPPCPAPEYLGGDSVFLFPPKPKDVLMISRTPEVTCVVIDVSHEDPEVKFNWYVDGVEVHNAKTKPREEQYNSTYRVVSVLPVLHRDWLNGKEYKCKVSNKALPKPIEKTISKAKGQRREPQVYTLPPSREEMTKNQVSLTCLVKGFYPSDIAVEWESNGQPENNYKTTPPVLDSDGSFFLYSKLTVDKSRWQQGNVFSCSVLHEALHAHTTRKELSLSP
light: DIVMTQSPATLSLSPGERATLSCTTSQSVYHENWLSWFQQKPGQPPKLLIYWASTLAYGVPSRFSGSGSGTDFTLTISSLQPEDAATYYCAGGYGGGRYAFGQGTKVEIKRTVAAPSVFIFPPSDEQLKSGTASVVCLLNNFYPREAKVQWKVDNALQSGNSQESVTEQDSKDSTYSLSSTLTLSKADYEKHKVYACEVTHQGLSSPVTKSFNRGEC

KD fold (SG1 = 1) [8]: 0.5 fold
Kd [9]: 6.1 µM
Kd [10]: 1.2 µM
B3: M103205H795-MY043/M103202L889-SK1 (antibody, human IgG1, kappa, name in EU numbering)
heavy: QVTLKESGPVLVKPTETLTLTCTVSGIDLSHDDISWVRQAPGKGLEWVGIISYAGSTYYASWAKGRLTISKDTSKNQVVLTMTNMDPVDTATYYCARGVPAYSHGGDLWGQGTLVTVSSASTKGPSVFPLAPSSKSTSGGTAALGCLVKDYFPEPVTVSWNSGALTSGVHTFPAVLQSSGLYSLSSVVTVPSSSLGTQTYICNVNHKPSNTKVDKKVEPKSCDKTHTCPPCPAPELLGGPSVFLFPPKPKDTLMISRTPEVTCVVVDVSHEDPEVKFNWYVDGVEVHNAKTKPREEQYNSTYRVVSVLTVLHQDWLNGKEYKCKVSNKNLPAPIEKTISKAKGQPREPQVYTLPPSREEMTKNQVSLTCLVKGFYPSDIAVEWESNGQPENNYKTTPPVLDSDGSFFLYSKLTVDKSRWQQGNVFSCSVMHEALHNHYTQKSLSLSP
light: DIVMTQSPATLSLSPGERATLSCTSSQSVYHANWLSWFQQKPGQPPKLLIYWASTLAYGVPSRFSGSGSGTDFTLTISSLQPEDAATYYCAGGYGGGRYAFGQGTKVEIKRTVAAPSVFIFPPSDEQLKSGTASVVCLLNNFYPREAKVQWKVDNALQSGNSQESVTEQDSKDSTYSLSSTLTLSKADYEKHKVYACEVTHQGLSSPVTKSFNRGEC
notes: Substitution introduced into M103205H795-SG1; EU numbering

Kd [11]: 0.6 µM
B4: M103205H795-MY015/M103202L889-SK1 (antibody, human IgG1, kappa, name in EU numbering)
heavy: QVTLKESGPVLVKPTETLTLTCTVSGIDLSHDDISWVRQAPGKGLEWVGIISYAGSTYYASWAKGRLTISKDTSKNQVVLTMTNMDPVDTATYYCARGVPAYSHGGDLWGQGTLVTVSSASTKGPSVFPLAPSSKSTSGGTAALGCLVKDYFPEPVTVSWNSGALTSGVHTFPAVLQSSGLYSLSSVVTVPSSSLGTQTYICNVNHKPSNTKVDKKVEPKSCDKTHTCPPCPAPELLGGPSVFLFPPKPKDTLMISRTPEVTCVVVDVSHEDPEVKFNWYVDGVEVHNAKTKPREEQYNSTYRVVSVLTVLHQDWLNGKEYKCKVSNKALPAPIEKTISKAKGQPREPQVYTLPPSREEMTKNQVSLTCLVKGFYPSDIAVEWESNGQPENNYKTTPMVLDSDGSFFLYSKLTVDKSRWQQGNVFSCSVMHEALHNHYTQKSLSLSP
light: DIVMTQSPATLSLSPGERATLSCTSSQSVYHANWLSWFQQKPGQPPKLLIYWASTLAYGVPSRFSGSGSGTDFTLTISSLQPEDAATYYCAGGYGGGRYAFGQGTKVEIKRTVAAPSVFIFPPSDEQLKSGTASVVCLLNNFYPREAKVQWKVDNALQSGNSQESVTEQDSKDSTYSLSSTLTLSKADYEKHKVYACEVTHQGLSSPVTKSFNRGEC
notes: as for B3

Kd [10]: 0.55 µM
B5: M103205H795-MY038/M103202L889-SK1 (antibody, human IgG1, kappa, name in EU numbering)
heavy: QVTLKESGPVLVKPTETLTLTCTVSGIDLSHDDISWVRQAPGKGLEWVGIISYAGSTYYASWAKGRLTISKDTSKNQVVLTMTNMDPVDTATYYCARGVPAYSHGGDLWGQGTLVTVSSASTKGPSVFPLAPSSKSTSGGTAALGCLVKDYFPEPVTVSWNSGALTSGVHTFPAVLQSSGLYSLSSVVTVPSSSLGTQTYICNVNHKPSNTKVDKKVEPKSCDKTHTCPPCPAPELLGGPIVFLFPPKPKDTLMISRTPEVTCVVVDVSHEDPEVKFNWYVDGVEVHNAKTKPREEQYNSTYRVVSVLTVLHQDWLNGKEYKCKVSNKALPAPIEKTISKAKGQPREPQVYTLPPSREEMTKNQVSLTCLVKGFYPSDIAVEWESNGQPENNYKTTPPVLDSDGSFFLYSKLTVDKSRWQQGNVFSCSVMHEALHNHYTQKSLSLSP
light: DIVMTQSPATLSLSPGERATLSCTSSQSVYHANWLSWFQQKPGQPPKLLIYWASTLAYGVPSRFSGSGSGTDFTLTISSLQPEDAATYYCAGGYGGGRYAFGQGTKVEIKRTVAAPSVFIFPPSDEQLKSGTASVVCLLNNFYPREAKVQWKVDNALQSGNSQESVTEQDSKDSTYSLSSTLTLSKADYEKHKVYACEVTHQGLSSPVTKSFNRGEC
notes: as for B3

KD fold (SG1 = 1) [7]: 0.006 fold
B6: MS103240H795-TT68/M103202L1045-SK1 (antibody)
heavy: QVQLVESGGGLVQPGGSLRLSCAVSGIDLSHDDISWVRQAPGKGLEWVSIISYAGSTYYASWAKGRLTISKDTSKNQVVLTMTNMDPVDTATYYCARGVPAYSHGGDLWGQGTLVTVSSASTKGPSVFPLAPSSKSTSGGTAALGCLVKDYFPEPVTVSWNSGALTSGVHTFPAVLQSSGLYSLSSVVTVPSSSLGTQTYICNVNHKPSNTKVDKKVEPKSCDKTHTCPPCPAPELLGGDSVFLFPPKPKDVLMISRTPEVTCVVVDVSHEDPEVKFNWYVDGVEVHNAKTKPREEQYNSTYRVVSVLPVLHRDWLNGKEYKCKVSNKALPKPIEKTISKAKGQPREPQVYTLPPSREEMTKNQVSLTCLVKGFYPSDIAVEWESNGQPENNYKTTPPVLDSDGSFFLYSKLTVKKSRWQQGNVFSCSVMHEALHAHYTRKELSLSP
light: DIVMTQSPATLSLSPGERATLSCTTSQSVYHENWLSWFQQKPGQPPKLLIYWASTLAYGVPSRFSGSGSGTDFTLTISSLQPEDAATYYCAGGYGGGRYAFGQGTKVEIKRTVAAPSVFIFPPSDEQLKSGTASVVCLLNNFYPREAKVQWKVDNALQSGNSQESVTEQDSKDSTYSLSSTLTLSKADYEKHKVYACEVTHQGLSSPVTKSFNRGEC
notes: copies: 2 + 2
